# Experimental data reported in paper PMC2137936, “Molecular Analysis of Thymopentin Binding to HLA-DR Molecules” (PLoS ONE, 2007).
# No end group written: not given here.
# B1: FITC-labeled thymopentin (TP5) (peptide)
# peptide: RKDVY
# modifications: also: FITC label, position not given here
# notes: thymopentin (TP5), synthetic pentapeptide corresponding to position 32~36 of thymopoietin; also called FITC-labeled TP5; fluorescent-labeled TP5; source: synthetic peptide, conjugated with FITC (Sigma) and purified
# Target: human class II major histocompatibility complex DR molecules (HLA-DR) on EBV-transformed B cells (human (endogenous in EBV-transformed B …, UniProt P01903 26-254; P01911 30-266)
# Test: flow cytometry on cells; 3x10^5 living EBV-transformed B cells incubated with various concentrations of FITC-labeled TP5 in PBS pH 7.4 with 1% BSA, 2 h, 37°C; washed; MFI read; apparent Kd from a double-reciprocal plot of the equilibrium data
# Settings: one partner purified
binder,measurement,value
B1,Kd,7.2 µM
